The values that follow come from publication PMC10499876, “Arabidopsis TCP4 transcription factor inhibits high temperature-induced homeotic conversion of ovules”.

This data set deals with T1, TCP4 DNA binding domain (Arabidopsis thaliana, UniProt Q8LPR5 45-103).
T1 sequence: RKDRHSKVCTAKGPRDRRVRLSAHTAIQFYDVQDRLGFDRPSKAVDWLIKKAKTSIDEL
The experiment in a line: EMSA; EMSA: ~180 ng protein + ~200 ng dsDNA, 4 °C 20 min; DNA annealed in 25 mM Tris, 100 mM NaCl pH 8.0; 7% native PAGE in 0.5x TBE, ethidium bromide; binding buffer not stated. Particulars: protein: recombinant; tags: C-terminal His (pET-21b); chain copies: 2; blunt. On the technique in general: A gel shift assay detects complexes by their altered migration in electrophoresis.

B1: CRC promoter probe (dsDNA)
DNA 1: CAGGAAAGGACCATTCTTAA
DNA 2: TTAAGAATGGTCCTTTCCTG
For the molecule B1, the binding result is “binds”.
